This note sets out measurements from US20230190944A1.

For experiment [1], the target named is Human CT receptor (calcitonin receptor) (human), P30988. As to the kind of experiment: cell-based or functional assay.
Experiment [2] deals with Human AMY1 receptor (amylin receptor 1) (human), P30988. Kind of experiment: cell-based or functional assay.

Starred links: 1 amine or outer side, 2 acyl side, 3 side chain; linkers in the order of their positions; H or OH if unused. Non-standard residues stand in square brackets, D forms with d. Groups on a side chain read outwards from the residue. *: point of attachment. C20 diacid = O=C(O)CCCCCCCCCCCCCCCCCCC(=O)*; γGlu = O=C(O)[C@H](CCC(=O)[*:2])N[*:1]; AEEA = NCCOCCOCC(=O)O; Aib = CC(C)(N)C(=O)O

Chain of Human AMY1 receptor (amylin receptor 1) (human), P30988 (P30988 25-474, chain 1 of 2): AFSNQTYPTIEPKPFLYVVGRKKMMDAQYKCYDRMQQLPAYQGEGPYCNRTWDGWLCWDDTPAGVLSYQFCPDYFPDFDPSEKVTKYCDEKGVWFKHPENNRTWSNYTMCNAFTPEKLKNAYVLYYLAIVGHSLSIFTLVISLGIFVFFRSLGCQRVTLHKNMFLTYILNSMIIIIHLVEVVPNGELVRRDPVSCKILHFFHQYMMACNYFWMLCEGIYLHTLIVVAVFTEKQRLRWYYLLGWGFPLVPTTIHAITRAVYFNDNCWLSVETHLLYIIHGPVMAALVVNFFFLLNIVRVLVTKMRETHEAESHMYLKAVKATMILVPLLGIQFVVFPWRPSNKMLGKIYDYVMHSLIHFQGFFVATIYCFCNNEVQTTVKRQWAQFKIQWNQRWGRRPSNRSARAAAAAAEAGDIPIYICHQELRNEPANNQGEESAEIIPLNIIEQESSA
Chain of Human AMY1 receptor (amylin receptor 1) (human), P30988 (O60894 27-148, chain 2 of 2, further chain): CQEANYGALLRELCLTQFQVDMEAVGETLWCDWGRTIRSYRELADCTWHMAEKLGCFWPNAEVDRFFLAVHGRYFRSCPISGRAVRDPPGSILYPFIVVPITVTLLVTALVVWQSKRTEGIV
Chain of Human CT receptor (calcitonin receptor) (human), P30988 (P30988 25-474): as the sequence (P30988 25-474, chain 1 of 2) above

B1: Compound I (peptide)
peptide: Ac-ASHLSTAVLGKLS[Aib]ELHKLEDYPRTDVGAESP-NH2
SMILES: CC(=O)N[C@@H](C)C(=O)N[C@@H](CO)C(=O)N[C@@H](Cc1c[nH]cn1)C(=O)N[C@@H](CC(C)C)C(=O)N[C@@H](CO)C(=O)N[C@H](C(=O)N[C@@H](C)C(=O)N[C@H](C(=O)N[C@@H](CC(C)C)C(=O)NCC(=O)N[C@@H](CCCCN)C(=O)N[C@@H](CC(C)C)C(=O)N[C@@H](CO)C(=O)NC(C)(C)C(=O)N[C@@H](CCC(=O)O)C(=O)N[C@@H](CC(C)C)C(=O)N[C@@H](Cc1c[nH]cn1)C(=O)N[C@@H](CCCCN)C(=O)N[C@@H](CC(C)C)C(=O)N[C@@H](CCC(=O)O)C(=O)N[C@@H](CC(=O)O)C(=O)N[C@@H](Cc1ccc(O)cc1)C(=O)N1CCC[C@H]1C(=O)N[C@@H](CCCNC(=N)N)C(=O)N[C@H](C(=O)N[C@@H](CC(=O)O)C(=O)N[C@H](C(=O)NCC(=O)N[C@@H](C)C(=O)N[C@@H](CCC(=O)O)C(=O)N[C@@H](CO)C(=O)N1CCC[C@H]1C(N)=O)C(C)C)[C@@H](C)O)C(C)C)[C@@H](C)O
Regarding B1, in experiment [1], the hCT cAMP EC50 (pM) stood at 31.7 pM. Further, in experiment [2], the hAMY1 cAMP EC50 (pM) is 49.3 pM.

B2: Compound II (peptide)
peptide: Ac-ASHLSTAVLGK([AEEA-AEEA-γGlu-C20 diacid])LS[Aib]ELHKLEDYPRTDVGAESP-NH2
SMILES: CC(=O)N[C@@H](C)C(=O)N[C@@H](CO)C(=O)N[C@@H](Cc1c[nH]cn1)C(=O)N[C@@H](CC(C)C)C(=O)N[C@@H](CO)C(=O)N[C@H](C(=O)N[C@@H](C)C(=O)N[C@H](C(=O)N[C@@H](CC(C)C)C(=O)NCC(=O)N[C@@H](CCCCNC(=O)COCCOCCNC(=O)COCCOCCNC(=O)CC[C@H](NC(=O)CCCCCCCCCCCCCCCCCCC(=O)O)C(=O)O)C(=O)N[C@@H](CC(C)C)C(=O)N[C@@H](CO)C(=O)NC(C)(C)C(=O)N[C@@H](CCC(=O)O)C(=O)N[C@@H](CC(C)C)C(=O)N[C@@H](Cc1c[nH]cn1)C(=O)N[C@@H](CCCCN)C(=O)N[C@@H](CC(C)C)C(=O)N[C@@H](CCC(=O)O)C(=O)N[C@@H](CC(=O)O)C(=O)N[C@@H](Cc1ccc(O)cc1)C(=O)N1CCC[C@H]1C(=O)N[C@@H](CCCNC(=N)N)C(=O)N[C@H](C(=O)N[C@@H](CC(=O)O)C(=O)N[C@H](C(=O)NCC(=O)N[C@@H](C)C(=O)N[C@@H](CCC(=O)O)C(=O)N[C@@H](CO)C(=O)N1CCC[C@H]1C(N)=O)C(C)C)[C@@H](C)O)C(C)C)[C@@H](C)O
On to B2, for which the hCT cAMP EC50 (pM) in experiment [1] was determined as 40.9 pM. Further, the hAMY1 cAMP EC50 (pM) in experiment [2] is 49.4 pM.
